This passage reports EGFP signal on beads results from PMC7683268.

In the assay the target is N-terminally MBP-fused and C-terminally mCherry-fused C-terminal intracellular region of Lrp5 (zebrafish). Briefly: bead binding assay read by EGFP fluorescence microscopy.

“N-terminally GST-fused and C-terminally EGFP-fused RBP1a (natural protein)” gave an EGFP signal on beads of 5.3.
